According to patent US9091696B2, “Modulation of NR2F6 and methods and uses thereof” (Regen Biopharma, Inc., priority 2008, dated 2015):

How the values were obtained:
U937 GFP cells = experiment: Cell cycle analysis by propidium iodide DNA content after atRA; format: cell-based, human; conditions: control U937 GFP cells; FIG. 3B
Method: Differentiation was induced in the U937 cell line by treatment with 10 nM TPA (Sigma), 1 uM ATRA (Sigma), or 1.25% v/v DMSO (Sigma) respectively. Immunostaining for the maturation marker CD11b (eBioscience) was performed for twenty minutes in the dark according to manufacturer's instructions and cells were analysed by flow cytometry. Nitroblue tetrazolium (NBT) reduction test (Sigma) was performed according to the manufacturer's instructions, with a minimum of 300 cells scored per slide in three different fields of view. Each experimental timepoint was conducted in triplicate.
Overexpression of NR2F6 is able to override the growth arrest associated with differentiation and maturation, in particular maturation and differentiation induced by all-trans retinoic acid (FIG. 3). […] Growth of U937 cells expressing either GFP of NR2F6-IRES-GFP was monitored by counting using trypan blue following treatment of cells with atRA (FIG. 3A). U937 cells expressing either GFP of NR2F6-IRES-GFP were treated with atRA. DNA content was assessed using propidium iodide in order to determine which phase of the cell cycle the cells in each respective population resided in (FIG. 3B).

32Dcl3-NR2F6 cells = experiment: G-CSF induced differentiation of NR2F6 over-expressing cells after HDAC inhibitor pretreatment (cell surface CD11b); format: cell-based, mouse; conditions: pretreatment prior to G-CSF; non-treated 32Dcl3-NR2F6 cells failed to differentiate; FIG. 32
Excerpt: It has been reported that NR2F6 exerts its regulatory effects primarily as a transcriptional repressor (Liu, X., Huang, X., and Sigmund, C. D. (2003). Identification of a nuclear orphan receptor (Ear2) as a negative regulator of renin gene transcription. Circ Res 92, 1033-1040.). The repressor activity of nuclear receptors is mediated by recruitment of corepressors with histone deacetylase (HDAC) activity; we therefore evaluated the importance of this mechanism in the effects of NR2F6 on haematopoiesis and evaluated weather the activity of NR2F6 can be modulated with an HDAC inhibitor. 32Dcl3-NR2F6 cells were incubated with the non-specific histone deacetylase inhibitor sodium butyrate prior to treatment with G-CSF.

bone marrow cells = experiment: Methylcellulose colony formation and replating after silencing of EAR-2 (NR2F6); format: cell-based, mouse; conditions: cytokines promoting multilineage or erythroid progenitor differentiation; FIG. 58
Method: We assessed the effects of silencing of EAR-2 expression on colony formation in vitro. […] In replating experiments we observed a significant decrease in secondary colonies in cells in which EAR-2 expression was silenced FIG. 59.
• The 293GPG retroviral packaging cell line (a gift of Richard Mulligan, Harvard University) was grown in DMEM medium supplemented with 10% FBS, tetracycline ([…]), G418 (0.3 mg/mL) and puromycin ([…]). Human EAR-2 cDNA (a kind gift from John Ladias, Harvard University) or Mus EAR-2 cDNA (a kind gift from, Curt D. Sigmund, University of Iowa) was subcloned into the pcDNA3.1V5/HIS vector (Invitrogen). […] Real time PCR was performed according to manufacturer's instructions using SYBR Green Master Mix (Applied Biosystems, Foster City, Calif.) and analyzed using the delta-delta CT method (16). Bone Marrow Transduction • Using the retroviral constructs described above, we forced expression of EAR-2 in primary murine BM cells and monitored the effects on differentiation using colony assays. […] Forty-eight hours after retroviral infection GFP-positive cells were collected by fluorescence activated cell sorting (FACS). […] GFP-positive cells were purified by fluorescence activated cell sorting (FACS) and cultured in methylcellulose medium containing hematopoietic growth factors that favored multilineage differentiation. […]

Murine bone marrow cells = experiment: shRNA knock down of NR2F6 in ex vivo bone marrow suspension culture (flow cytometry, morphology); format: cell-based, mouse
Method: Murine bone marrow cells were cultured in conditions that preserved stem cell maintenance (c-kit ligand; thrombopoietin; and Flt3 ligand in OP9 conditioned medium) and transduced with either an shRNA targeting NR2F6 or a scrambled control shRNA. Following seven days in culture cells were analysed by flow cytometry.

[1] = tested on: 32Dcl3 mouse hematopoietic cells; experiment: shRNA knock down of NR2F6, differentiation by cytospins and flow cytometry; format: cell-based; conditions: vs pSiren universal negative control, FIG. 26
Method: Knock down of NR2F6 using short-hairpin RNAs induces differentiation and maturation of 32Dcl3 mouse hematopoietic cells (FIG. 26).
(§1) Oligonucleotides targeting human or mouse EAR-2 were synthesized (Sigma), annealed and cloned into the pSiren vector (Clontech), after which sequence was verified (The Centre for Applied Genomics, Toronto). Virus was prepared by transient transfection of plasmid in the 293GPG cell line as described above. Knockdown was confirmed by western blot for these vectors in cell lines and by qPCR in bone marrow cells (data not shown and (17)).

[2] = tested on: U937 human myelomonocytic leukemia cells; experiment: as above; format: cell-based; conditions: vs pSiren universal negative control, FIG. 27
Method: Knock down of NR2F6 using short-hairpin RNAs induces terminal differentiation, blood cell maturation death of U937 human leukemia cells (FIG. 27).
as §1

Molecule: CC1=C(/C=C/C(C)=C/C=C/C(C)=C/C(=O)O)C(C)(C)CCC1 [atRA, all-trans retinoic acid]
- number of cells in S/G2/M phases of the cell cycle (U937 GFP cells): drastic decrease in the number of cells in S/G2/M phases

Molecule: CCCC(=O)[O-].[Na+] [sodium butyrate]
- G-CSF induced differentiation (cell surface CD11b expression) (32Dcl3-NR2F6 cells): showed recovery of G-CSF induced differentiation

B1: Mus shNR2F6: short-hairpin RNA targeting mouse NR2F6, SEQ ID NO: 5, cloned into the pSiren vector (nucleic acid)
DNA: GATCCGCATTACGGCGTGTTCACCTTCAAGAGAGGTGAACACGCCGTAATGCTTTTTTCTAGAG
- colony size in methylcellulose (bone marrow cells): increase in the size of colonies
- differentiation and maturation of bone marrow cells into neutrophils (Murine bone marrow cells; flow cytometry (FIG. 30) and morphology (FIG. 31)): promoted the differentiation and maturation of bone marrow cells into neutrophils
- number of immature cells (devoid of markers of lineage commitment) (Murine bone marrow cells; seven days in culture, vs scrambled shRNA control, flow cytometry, FIG. 28): dramatically reduced the number of immature cells
- number of stem cells (ckit+Sca-1+lineage-, KSL cells) (Murine bone marrow cells; seven days in culture, vs scrambled shRNA control, flow cytometry, FIG. 29): dramatically reduced
- myeloid cell differentiation [1]: induces spontaneous myeloid cell differentiation

B2: Human shNR2F6: short-hairpin RNA targeting human NR2F6, SEQ ID NO: 6, cloned into the pSiren vector (nucleic acid)
DNA: GATCCGCATTACGGTGTCTTCACCTTCAAGAGAGGTGAAGACACCGTAATGCTTTTTTCTAGAG
- myeloid cell differentiation [2]: induces spontaneous myeloid cell differentiation
